B1: IR593.αCT (domain or fragment, human, UniProt P06213 28-620, looked up)
chain: HLYPGEVCPGMDIRNNLTRLHELENCSVIEGHLQILLMFKTRPEDFRDLSFPKLIMITDYLLLFRVYGLESLKDLFPNLTVIRGSRLFFNYALVIFEMVHLKELGLYNLMNITRGSVRIEKNNELCYLATIDWSRILDSVEDNYIVLNKDDNEECGDICPGTAKGKTNCPATVINGQFVERCWTHSHCQKVCPTICKSHGCTAEGLCCHSECLGNCSQPDDPTKCVACRNFYLDGRCVETCPPPYYHFQDWRCVNFSFCQDLHHKCKNSRRQGCHQYVIHNNKCIPECPSGYTMNSSNLLCTPCLGPCPKVCHLLEGEKTIDSVTSAQELRGCTVINGSLIINIRGGNNLAAELEANLGLIEEISGYLKIRRSYALVSLSFFRKLRLIRGETLEIGNYSFYALDNQNLRQLWDWSKHNLTITQGKLFFHYNPKLCLSEIHKMEEVSGTKGRQERNDIALKTNGDQASCENELLKFSYIRTSFDKILLRWEPYWPPDFRDLLGFMLFYKEAPYQNVTEFDGQDACGSNSWTVVDIDPPLRSNDPKSQNHPGWLMRGLKPWTQYAIFVKTLVTFSDERRTYGAKSDIIYVQTDATTFEDYLHNVVFVPRPS

Experiments:
[1] = target: insulin receptor site 1 (Homo sapiens) (UniProt P06213); settings: cited from earlier work
Sequence of insulin receptor site 1 (Homo sapiens) (P06213 763-956): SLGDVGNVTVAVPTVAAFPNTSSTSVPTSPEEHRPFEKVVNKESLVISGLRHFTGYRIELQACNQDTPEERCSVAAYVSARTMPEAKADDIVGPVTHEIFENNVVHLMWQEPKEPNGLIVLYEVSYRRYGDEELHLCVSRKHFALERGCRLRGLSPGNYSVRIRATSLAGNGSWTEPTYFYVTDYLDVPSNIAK

[2] = target: insulin receptor site 2 (Homo sapiens) (UniProt P06213); settings: cited from earlier work
Sequence of insulin receptor site 2 (Homo sapiens) (P06213 763-956): as above

[3] = target: the molecule itself; assay: SEC
[4] = target: the molecule itself; assay: crystal structure

Molecule	Kd [1] [nM]	Kd [2] [nM]	stoichiometry N [3]	stoichiometry N [4]
insulin (from UniProt P01308)	6.4	400	–	–
B1	–	–	2	4

Reference: PMC3793637 (Nature, 2013)
